Data reported in PMC9649601 (2022).

Target: ubiquitin conjugating enzyme E2 I (UBE2I), recombinant (UniProt P63279 1-158)
Experiment: ITC

Chain of ubiquitin conjugating enzyme E2 I (UBE2I), recombinant (P63279 whole entry): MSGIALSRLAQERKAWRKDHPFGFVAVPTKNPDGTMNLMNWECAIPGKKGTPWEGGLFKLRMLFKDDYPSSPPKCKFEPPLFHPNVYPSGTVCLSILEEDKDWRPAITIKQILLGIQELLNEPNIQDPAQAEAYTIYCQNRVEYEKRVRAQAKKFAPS

B1: lamin A (LMNA), wild type, recombinant (natural protein)
chain: METPSQRRATRSGAQASSTPLSPTRITRLQEKEDLQELNDRLAVYIDRVRSLETENAGLRLRITESEEVVSREVSGIKAAYEAELGDARKTLDSVAKERARLQLELSKVREEFKELKARNTKKEGDLIAAQARLKDLEALLNSKEAALSTALSEKRTLEGELHDLRGQVAKLEAALGEAKKQLQDEMLRRVDAENRLQTMKEELDFQKNIYSEELRETKRRHETRLVEIDNGKQREFESRLADALQELRAQHEDQVEQYKKELEKTYSAKLDNARQSAERNSNLVGAAHEELQQSRIRIDSLSAQLSQLQKQLAAKEAKLRDLEDSLARERDTSRRLLAEKEREMAEMRARMQQQLDEYQELLDIKLALDMEIHAYRKLLEGEEERLRLSPSPTSQRSRGRASSHSSQTQGGGSVTKKRKLESTESRSSFSQHARTSGRVAVEEVDEEGKFVRLRNKSNEDQSMGNWQIKRQNGDDPLLTYRFPPKFTLKAGQVVTIWAAGAGATHSPPTDLVWKAQNTWGCGNSLRTALINSTGEEVAMRKLVRSVTVVEDDEDEDGDDLLHHHHGSHCSSSGDPAEYNLRSRTVLCGTCGQPADKASASGSGAQVGGPISSGSSASSVTVTRSYRSVGGSGGGSFGDNLVTRSY
Kd: 373 nM
